Data published in PMC9387928.

Target: T1, ZccR (MerR-type regulator) (Streptococcus mutans UA159) (UniProt Q8DRZ5)
T1 sequence: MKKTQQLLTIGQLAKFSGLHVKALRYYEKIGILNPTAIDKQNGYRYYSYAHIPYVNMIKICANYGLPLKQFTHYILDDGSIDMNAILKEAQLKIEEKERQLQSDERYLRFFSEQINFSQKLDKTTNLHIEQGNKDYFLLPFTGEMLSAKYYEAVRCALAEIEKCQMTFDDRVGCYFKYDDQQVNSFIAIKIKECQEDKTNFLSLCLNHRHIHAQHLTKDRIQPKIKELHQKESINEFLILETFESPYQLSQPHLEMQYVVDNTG
Experiment: EMSA
Settings: 10 mM Tris, 50 mM KCl, 1 ug poly dI-dC, 1 mM DTT, 5% glycerol, pH 7.5; 20 fmol probe in 20 ul; 6% native PAGE at 4 C; binding temperature not stated

Sequence: CACAAATAGCTTGACCTTCCCTTTAAGGTATAGTTTATAGTTAAACTATAACAAGGTTTGCTAAAAAATGCAATGATTTCTGTATTGGAAAGGAGCCAATCATGTCTAAAGGTGATAAACAAAAGAAAAGGCTTCAAAAAATGACTTGGCTTTCAATATG (double strand) [zccE-zccR intergenic region (IGR), 160 bp]
- binding: binds
